Where a chain is given by its changes, count along the chain named. Numbers in names are those of the source.
B1: PoxA (Escherichia coli K-12) (protein)
chain: MSETASWQPSASIPNLLKRAAIMAEIRRFFADRGVLEVETPCMSQATVTDIHLVPFETRFVGPGHSQGMNLWLMTSPEYHMKRLLVAGCGPVFQLCRSFRNEEMGRYHNPEFTMLEWYRPHYDMYRLMNEVDDLLQQVLDCPAAESLSYQQAFLRYLEIDPLSADKTQLREVAAKLDLSNVADTEEDRDTLLQLLFTFGVEPNIGKEKPTFVYHFPASQASLAQISTEDHRVAERFEVYYKGIELANGFHELTDAREQQQRFEQDNRKRAARGLPQHPIDQNLIEALKVGMPDCSGVALGVDRLVMLALGAETLAEVIAFSVDRA
B2: PoxA (Escherichia coli K-12; A298G) (protein)
chain: B1 chain with A298G

Assays:
Settings in all cases: amino acid activation with ATP; no EF-P stated
[1] = substrate: NCCCC[C@H](N)C(=O)O; test: purified protein
[2] = substrate: NCCC[C@H](N)CC(=O)O; test: steady-state kinetics of amino acid activation; format: biochemical, Escherichia coli
[3] = substrate: NCCC[C@@H](N)CC(=O)O; test: steady-state kinetics of amino acid activation; format: biochemical, Escherichia coli

Protein | Km [1] | kcat [1] | kcat/Km [1] | Km [2] | kcat [2] | kcat/Km [2] | Km [3] | kcat [3] | kcat/Km [3]
B1 | 8600 ± 1200 µM | 0.25 s⁻¹ | 28.3 M⁻¹ s⁻¹ | 6950 ± 1894 µM | 0.0467 s⁻¹ | 6.67 M⁻¹ s⁻¹ | 213 ± 31 µM | 0.6 ± 0.055 s⁻¹ | 2820 M⁻¹ s⁻¹
B2 | 344 ± 44 µM | 0.0633 s⁻¹ | 185 M⁻¹ s⁻¹ |  |  |  | 414 ± 63 µM | 0.283 ± 0.00833 s⁻¹ | 683 M⁻¹ s⁻¹

From PMC3177975
